Assays:
[1] = substrate: O=c1c(O)c(-c2ccc(O)cc2)oc2cc(O)cc(O)c12; assay: purified protein; conditions: 10 mM UDP-glucose, 50 mM HEPES pH 8.0, 30°C, 2 min
[2] = substrate: O=c1c(O)c(-c2ccc(O)c(O)c2)oc2cc(O)cc(O)c12; assay: HPLC glucosyltransferase assay; format: biochemical, Freesia hybrid cultivar; conditions: 10 mM UDP-glucose, 50 mM HEPES pH 8.0, 30°C, 2 min, acceptor 10-60 µM
[3] = acceptor 10-60 µM (Km lies far below this range)

Row | Protein | Km ([1]; acceptor 10-60 µM) [µM] | Km [2] [µM] | kcat [2] [s⁻¹] | kcat/Km [2] [M⁻¹ s⁻¹] | Km [1, 3] [µM] | kcat [1, 3] [s⁻¹] | kcat/Km [1, 3] [M⁻¹ s⁻¹]
1 | Fh3GT1 (Freesia hybrid cultivar) (protein, recombinant from E. coli BL21 (DE3), pET32a, N-terminal 6x His tag, Ni Sepharose purified) MGSADRSHVALLAFPFGTHAAPLLSLGLNLASSAPHGTTFSFLSNRRPVSLPPNSAIKFYEIADGSDPEHEGHVHPEEEVRVFMEETPGNYKKALEAAVDRCGGQRVTCIVADAFLWFVGDIAAEFGVHWVPLWTGGPCSFLAHLYTDMLRNKIGTGKEADPDEDLQFLPGLSGFRVRDLPDDIVTGDLTGAFASLLHRMSIEIPRSAAAIAINTFEGLHPDIDADLASKFKKSLPIGPLNLLNPTLNQPDRFSCLAWLDKFEPHSVAYVSFGTLAALTEAELVELASGLEQSGVPFLWSLKEPGQLPAGFLDRTKDRGLVVPWVPQAEALKHVAVGASLSHCGWNSVMESVTSGVPMLCRPFLGDQTMNARAVSHVWKVGVTFENGTMTRANVAEAMKKVVVGEEGRKMRERAAAIREMAAGSVRPGGSSVQNFKALLDIVIAR | 45.38 ± 3.90 | 96.38 ± 5.03 | 4.51 ± 0.039 | 46900 | – | – | –
2 | Fh3GT2 (Freesia hybrid cultivar) (protein, recombinant from E. coli BL21 (DE3), pET32a, N-terminal 6x His tag, Ni Sepharose purified) MGSSQPPTRRRHVAVIAFPFSSHPAALFTLARAMAAAAPGTTFSFLSFPGSVDSLSKIPCRPENLRLCHVADPTPPGAIPPEQRIGMFLAAAPAYLRAGIKAAEALDGGGVTCLVSDSLLWMTADVAEEKGVPWVAVWTGGTSALVVHVYTDRLRKFYGVVHGDAIHPRADELLDVNVVPGFSEHRVRDLPEGILWKVDSPFASLVDTMVSKFPRAVAVVANTIPGLDPGLDAAFASKFKNYLPIGPFTILSPLPSPQHDNECVAWLDRQAPASVAYVSFGTLAALPPSELTELANGLEASGVPFLWSMKNKEALPAGFLDRTRGKGLVVDWAPQASVLAHNAVGGFVTHCGWSSVMESVAAGVPMICRSVFGDQTMTAKMVCNAWKIGFGFSGGAITREEVVRGLRMVLRGEEGGREIRERSSELKSLAWREVKVEGRTVKNLNSLIEIING | – | 16.62 ± 0.03 | 1.86 ± 0.0023 | 112000 | 0.13 ± 0.01 | 0.73 | 5.46e+06
